Earlier results in publication PMC11391413.
Read-outs that look alike come from different tables or passages of the source.

Legend:
SOS1 S2 (Homo sapiens) [1] = target: SOS1 S2 (Homo sapiens)
[2] = target: SOS1 S4 PRM (Homo sapiens); assay: NMR
[3] = target: SOS1 S8 PRM (Homo sapiens) (UniProt Q07889); assay: NMR
[4] = target: SOS1 S10 PRM (Homo sapiens) (UniProt Q07889); assay: NMR
SOS1 S4 (Homo sapiens) [5] = target: SOS1 S4 (Homo sapiens)
SOS1 S2 (Homo sapiens) [6] = target: SOS1 S2 (Homo sapiens); remark: listed apart in the source
[7] = target: SOS1 S7 PRM (Homo sapiens) (UniProt Q07889); assay: NMR
SOS1 S4 (Homo sapiens) [8] = target: SOS1 S4 (Homo sapiens); remark: listed apart in the source

Chain of GRB2 CSH3 (P62993 156-215): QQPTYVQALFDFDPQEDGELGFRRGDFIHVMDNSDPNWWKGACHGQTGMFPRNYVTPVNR
Chain of GRB2 NSH3 (P62993 1-58): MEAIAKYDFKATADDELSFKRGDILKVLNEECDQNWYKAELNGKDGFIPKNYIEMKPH

Substance | Kd (SOS1 S2 (Homo sapiens) [1]) [µM] | Kd [2] [µM] | Kd [3] [µM] | Kd [4] [µM] | Kd (SOS1 S4 (Homo sapiens) [5]) [µM] | Kd (SOS1 S1 (Homo sapiens)) [µM] | Kd (SOS1 S2 (Homo sapiens) [6]) [µM] | Kd [7] [µM] | Kd (SOS1 S4 (Homo sapiens) [8]) [µM]
GRB2 CSH3 (from UniProt P62993) | 440 | 142 | 400 | 131 | 142 | – | – | – | –
GRB2 NSH3 (from UniProt P62993) | – | 37 | 208 | 71.5 | – | 730 | 250 | 580 | 37
